Among the data in US20110008340A1 (published 2011) are IC50 and Kd values, retold here.

Like-named read-outs stand apart in the source and are kept apart here.

Assay [1] concerns the target T1, human C3b (human, UniProt P01024 23-667; P01024 749-1663). The assay is described as follows: inhibition of properdin binding to C3b (ELISA). For orientation: An ELISA detects its analyte on a solid surface through an enzyme-linked reagent.
Assay [2] has as its target Properdin peptide (71-110) …. Description: ELISA saturation binding.
The target in assay [3] is T1, human C3b. The assay is described as follows: inhibition of properdin binding to C3b (ELISA). This is another data set of the same source.

Sequence of Properdin peptide (71-110) … (peptide, as listed by the source): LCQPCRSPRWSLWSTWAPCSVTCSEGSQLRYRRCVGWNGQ

In turn, RYRRCVGWNG [Properdin peptide RYRRCVGWNG (99-108)] came in with an IC50 in the assay with human C3b [1] of 301 µg/mL.

B1: MoAb^71-110 (antibody, V domains shown)
VH: QVLLQQSAPELARPGASVKMSCTASGYIFTNYPIHWVKQRPGQGLEWIGFIDPGGGYDEPDERFRDRATLTADKSSSTAYMQLSSLTSEDSAIYYCARRGGGYYLDYWGQDTTLTVSA
VL: SIVMTQTPKFLLVSAGDRITITCKASQSVNNDVAWYQQKPGQSPKLLIYYASNRYTGVPDRFTGSGYGTDFTFTITTVKAEDLAVYFCQQDYSSPLTFGAGTKLELK
B1 came in with a Kd in assay [2] of 161 nM.
In the assay with human C3b [3], CRSPRWSLWS [Properdin peptide CRSPRWSLWS (75-84)] registered an IC50 of 322 µg/mL.

In general, IC50 refers to the concentration that gives 50% inhibition. The low end stands for greater potency in that assay, the high end for weaker potency in that assay. The term Kd denotes the constant that tells how readily two partners part at equilibrium.
